Here are results for one substance from publication PMC10140330.

In the experiment the target is SmT1-R, resistin-trimerized SARS-CoV-2 reference strain spike ectodomain (SARS-CoV-2 | human) (UniProt P0DTC2). The experiment in a line: SPR; Biacore T200, 25°C, PBS with 0.05% Tween 20 and 3.4 mM EDTA; spike trimer captured through its resistin domain on an immobilised anti-resistin VHH-Fc; monomeric ACE2 flowed over, single cycle kinetics, three concentrations, 5-fold dilutions from 200 nM; 1:1 binding model. A general note: Surface plasmon resonance follows binding to a sensor surface in real time, without labels.

What is called Kd is the constant that tells how readily two partners part at equilibrium. Low values mean tighter binding, high ones weaker binding.

“recombinant human ACE2, purified monomeric (from UniProt Q9BYF1 18-805) (receptor)” yielded a Kd of 28 nM.
